T1: IPO5 (Homo sapiens), O00410
T1 chain: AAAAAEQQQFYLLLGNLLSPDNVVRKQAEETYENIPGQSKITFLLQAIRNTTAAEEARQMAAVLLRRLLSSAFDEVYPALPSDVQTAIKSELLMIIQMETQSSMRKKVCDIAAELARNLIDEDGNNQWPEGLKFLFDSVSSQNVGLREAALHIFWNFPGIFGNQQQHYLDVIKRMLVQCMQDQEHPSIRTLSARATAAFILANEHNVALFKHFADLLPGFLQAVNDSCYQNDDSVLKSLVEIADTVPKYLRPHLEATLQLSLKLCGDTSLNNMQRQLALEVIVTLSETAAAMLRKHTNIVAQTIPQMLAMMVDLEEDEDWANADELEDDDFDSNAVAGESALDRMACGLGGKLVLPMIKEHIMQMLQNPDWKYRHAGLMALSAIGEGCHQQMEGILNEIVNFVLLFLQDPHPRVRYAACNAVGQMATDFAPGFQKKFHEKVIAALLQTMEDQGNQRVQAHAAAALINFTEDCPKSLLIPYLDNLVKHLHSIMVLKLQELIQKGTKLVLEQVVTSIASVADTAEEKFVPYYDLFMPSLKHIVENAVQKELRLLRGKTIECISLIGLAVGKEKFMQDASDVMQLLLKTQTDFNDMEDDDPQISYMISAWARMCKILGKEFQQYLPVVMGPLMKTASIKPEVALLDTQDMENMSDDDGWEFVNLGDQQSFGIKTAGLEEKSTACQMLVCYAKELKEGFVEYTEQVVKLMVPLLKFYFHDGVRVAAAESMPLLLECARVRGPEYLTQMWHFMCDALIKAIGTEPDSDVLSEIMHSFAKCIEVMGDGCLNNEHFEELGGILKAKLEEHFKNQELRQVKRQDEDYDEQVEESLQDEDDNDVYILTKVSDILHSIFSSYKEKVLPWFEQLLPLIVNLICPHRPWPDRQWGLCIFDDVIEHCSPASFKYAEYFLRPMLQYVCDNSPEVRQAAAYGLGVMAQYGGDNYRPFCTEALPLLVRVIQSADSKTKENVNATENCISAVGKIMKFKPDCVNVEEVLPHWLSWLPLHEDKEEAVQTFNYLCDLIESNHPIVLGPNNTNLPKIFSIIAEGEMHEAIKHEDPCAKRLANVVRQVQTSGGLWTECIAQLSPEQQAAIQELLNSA


Columns and labels:
[1] = molecular target: T1, IPO5 (Homo sapiens), O00410; conditions: modification not given
[2] = molecular target: Core NLS 4 synthetic peptide (fused to penetratin) (hepatitis C virus | not stated); assay: ELISA; plates coated with synthetic peptide (10 µg/ml, carbonate buffer pH 9.6); increasing concentrations of recombinant NTF, 2 h, room temperature; anti-HIS detection; apparent Kd; conditions: remark: other sources report otherwise
[3] = molecular target: NS3 NLS 1 synthetic peptide (fused to penetratin) (hepatitis C virus | not stated); assay: as above; conditions: remark: other sources report otherwise
[4] = molecular target: NS3 NLS 2 synthetic peptide (fused to penetratin) (hepatitis C virus | not stated); assay: as above; conditions: remark: other sources report otherwise
[5] = molecular target: NS5A NLS synthetic peptide (fused to penetratin) (hepatitis C virus | not stated); assay: as above; conditions: remark: other sources report otherwise

Binder	Kd [1] [nM]	Kd [2] [nM]	Kd [3] [nM]	Kd [4] [nM]	Kd [5] [nM]
TRQARRNRRRRWRERQR [HIV-1 Rev NLS peptide NLS peptide, P04325]	44	–	–	–	–
recombinant IPO5 (importin β3/kap β3), O00410-1 1-1097 (natural protein) MAAAAAEQQQFYLLLGNLLSPDNVVRKQAEETYENIPGQSKITFLLQAIRNTTAAEEARQMAAVLLRRLLSSAFDEVYPALPSDVQTAIKSELLMIIQMETQSSMRKKVCDIAAELARNLIDEDGNNQWPEGLKFLFDSVSSQNVGLREAALHIFWNFPGIFGNQQQHYLDVIKRMLVQCMQDQEHPSIRTLSARATAAFILANEHNVALFKHFADLLPGFLQAVNDSCYQNDDSVLKSLVEIADTVPKYLRPHLEATLQLSLKLCGDTSLNNMQRQLALEVIVTLSETAAAMLRKHTNIVAQTIPQMLAMMVDLEEDEDWANADELEDDDFDSNAVAGESALDRMACGLGGKLVLPMIKEHIMQMLQNPDWKYRHAGLMALSAIGEGCHQQMEGILNEIVNFVLLFLQDPHPRVRYAACNAVGQMATDFAPGFQKKFHEKVIAALLQTMEDQGNQRVQAHAAAALINFTEDCPKSLLIPYLDNLVKHLHSIMVLKLQELIQKGTKLVLEQVVTSIASVADTAEEKFVPYYDLFMPSLKHIVENAVQKELRLLRGKTIECISLIGLAVGKEKFMQDASDVMQLLLKTQTDFNDMEDDDPQISYMISAWARMCKILGKEFQQYLPVVMGPLMKTASIKPEVALLDTQDMENMSDDDGWEFVNLGDQQSFGIKTAGLEEKSTACQMLVCYAKELKEGFVEYTEQVVKLMVPLLKFYFHDGVRVAAAESMPLLLECARVRGPEYLTQMWHFMCDALIKAIGTEPDSDVLSEIMHSFAKCIEVMGDGCLNNEHFEELGGILKAKLEEHFKNQELRQVKRQDEDYDEQVEESLQDEDDNDVYILTKVSDILHSIFSSYKEKVLPWFEQLLPLIVNLICPHRPWPDRQWGLCIFDDVIEHCSPASFKYAEYFLRPMLQYVCDNSPEVRQAAAYGLGVMAQYGGDNYRPFCTEALPLLVRVIQSADSKTKENVNATENCISAVGKIMKFKPDCVNVEEVLPHWLSWLPLHEDKEEAVQTFNYLCDLIESNHPIVLGPNNTNLPKIFSIIAEGEMHEAIKHEDPCAKRLANVVRQVQTSGGLWTECIAQLSPEQQAAIQELLNSA	–	105	33.8	35.8	32.3

— paper PMC4259358, “Functional Characterization of Nuclear Localization and Export Signals in Hepatitis C Virus Proteins and Their Role in the Membranous Web” (PLoS ONE, 2014)
